The values below come from publication PMC7290940.

Holding throughout (experiment): SEC; single purified protein on Superdex 200 10/300 GL, apparent mass against protein standards
Test [1] addresses full-length gp44 with C-terminal His6 tag (gp44–His), bacteriophage 80α (Staphylococcus aureus bacteriophage 80α).
The target in test [2] is gp44-NTD-His (gp44 residues 1–271) (Staphylococcus aureus bacteriophage 80α).
In test [3] the target is untagged CI immunity repressor of bacteriophage 80α (Staphylococcus aureus bacteriophage 80α).
Test [4] deals with untagged gp44 of bacteriophage 80α (Staphylococcus aureus bacteriophage 80α).

Usually stoichiometry N stands for the number of molecules, sites or subunits per partner or assembly. On to “full-length gp44 with C-terminal His6 tag (gp44–His), bacteriophage 80α (natural protein)”, for which the stoichiometry N in test [1] came out at 2.
“gp44-NTD-His (gp44 residues 1–271) (domain or fragment)”: the stoichiometry N in test [2] was determined as 2.
With “untagged CI immunity repressor of bacteriophage 80α (natural protein)”, the stoichiometry N in test [3] is 2.
As for “untagged gp44 of bacteriophage 80α (natural protein)”, the stoichiometry N in test [4] was determined as 2.
